Measured values published in US7897364.

Tests used:
agrin-C45 = target: T1, agrin-C45
T1 chain: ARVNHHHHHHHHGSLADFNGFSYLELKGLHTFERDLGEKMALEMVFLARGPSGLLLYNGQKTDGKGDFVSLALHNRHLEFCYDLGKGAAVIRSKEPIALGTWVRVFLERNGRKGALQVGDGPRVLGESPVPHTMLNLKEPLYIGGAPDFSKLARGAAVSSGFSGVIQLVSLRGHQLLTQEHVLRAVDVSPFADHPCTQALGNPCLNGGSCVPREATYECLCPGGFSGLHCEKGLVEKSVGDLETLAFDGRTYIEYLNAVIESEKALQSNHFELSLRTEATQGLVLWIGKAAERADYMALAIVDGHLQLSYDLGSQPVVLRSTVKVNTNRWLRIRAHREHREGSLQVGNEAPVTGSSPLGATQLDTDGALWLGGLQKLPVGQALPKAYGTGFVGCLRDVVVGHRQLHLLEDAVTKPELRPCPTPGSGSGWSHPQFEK

[1] = target: rat agrin, transmembrane isoform containing the splice variants Y4 and Z8, P25304
rat agrin, transmembrane isoform containing the splice variants Y4 and Z8, P25304, sequence (P25304 whole entry, looked up, change not shown, canonical isoform): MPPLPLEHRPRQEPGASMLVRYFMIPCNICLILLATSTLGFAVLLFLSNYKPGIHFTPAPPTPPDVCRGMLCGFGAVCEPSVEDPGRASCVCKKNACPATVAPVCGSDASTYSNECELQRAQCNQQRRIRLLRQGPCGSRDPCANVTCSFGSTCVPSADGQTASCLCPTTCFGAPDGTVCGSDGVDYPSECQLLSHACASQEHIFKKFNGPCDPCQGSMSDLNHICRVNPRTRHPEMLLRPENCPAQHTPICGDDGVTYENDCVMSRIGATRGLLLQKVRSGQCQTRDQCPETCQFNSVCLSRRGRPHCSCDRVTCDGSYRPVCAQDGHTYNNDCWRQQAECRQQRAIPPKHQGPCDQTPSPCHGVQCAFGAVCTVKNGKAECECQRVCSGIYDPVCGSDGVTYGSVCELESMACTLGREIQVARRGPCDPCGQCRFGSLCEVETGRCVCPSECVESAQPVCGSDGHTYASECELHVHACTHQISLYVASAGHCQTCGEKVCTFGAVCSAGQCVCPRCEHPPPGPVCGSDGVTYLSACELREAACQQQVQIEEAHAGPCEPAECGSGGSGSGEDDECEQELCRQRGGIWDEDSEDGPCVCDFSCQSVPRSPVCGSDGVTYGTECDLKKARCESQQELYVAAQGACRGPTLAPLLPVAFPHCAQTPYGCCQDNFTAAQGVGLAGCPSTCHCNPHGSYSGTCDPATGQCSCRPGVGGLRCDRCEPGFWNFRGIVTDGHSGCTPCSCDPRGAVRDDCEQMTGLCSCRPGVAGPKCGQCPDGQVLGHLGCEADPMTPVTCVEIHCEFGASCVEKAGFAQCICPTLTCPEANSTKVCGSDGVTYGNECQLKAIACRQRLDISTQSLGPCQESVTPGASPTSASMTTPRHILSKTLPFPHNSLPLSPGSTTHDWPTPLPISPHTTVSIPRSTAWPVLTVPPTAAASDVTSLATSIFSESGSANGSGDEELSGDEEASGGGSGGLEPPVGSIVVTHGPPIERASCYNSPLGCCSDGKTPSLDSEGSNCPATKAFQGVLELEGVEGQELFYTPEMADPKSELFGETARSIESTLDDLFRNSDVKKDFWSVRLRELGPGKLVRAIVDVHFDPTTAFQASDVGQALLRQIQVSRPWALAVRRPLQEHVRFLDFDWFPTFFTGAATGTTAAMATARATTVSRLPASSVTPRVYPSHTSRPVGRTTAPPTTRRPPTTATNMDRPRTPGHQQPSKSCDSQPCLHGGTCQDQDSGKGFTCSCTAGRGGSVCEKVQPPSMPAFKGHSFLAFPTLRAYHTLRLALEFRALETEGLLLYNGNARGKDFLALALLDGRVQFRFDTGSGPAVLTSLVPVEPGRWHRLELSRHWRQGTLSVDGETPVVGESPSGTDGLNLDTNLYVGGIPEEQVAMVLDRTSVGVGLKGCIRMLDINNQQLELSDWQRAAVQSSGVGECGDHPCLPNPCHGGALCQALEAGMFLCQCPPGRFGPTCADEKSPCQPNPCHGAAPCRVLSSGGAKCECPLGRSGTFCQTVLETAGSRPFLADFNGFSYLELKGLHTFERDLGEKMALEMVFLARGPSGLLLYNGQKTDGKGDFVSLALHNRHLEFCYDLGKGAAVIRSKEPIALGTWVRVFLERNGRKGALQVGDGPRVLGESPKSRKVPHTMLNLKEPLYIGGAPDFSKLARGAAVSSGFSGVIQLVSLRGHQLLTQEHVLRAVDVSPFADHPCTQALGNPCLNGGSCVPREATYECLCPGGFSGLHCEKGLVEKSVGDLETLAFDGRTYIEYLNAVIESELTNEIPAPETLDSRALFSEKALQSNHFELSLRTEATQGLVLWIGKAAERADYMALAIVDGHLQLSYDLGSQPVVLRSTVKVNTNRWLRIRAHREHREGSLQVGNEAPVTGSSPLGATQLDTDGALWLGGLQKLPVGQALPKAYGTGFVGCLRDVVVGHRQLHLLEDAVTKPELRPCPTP

[2] = target: agrin (endogenous, in mouse spinal cord and brain), A2ASQ1
agrin (endogenous, in mouse spinal cord and brain), A2ASQ1, sequence (A2ASQ1 whole entry): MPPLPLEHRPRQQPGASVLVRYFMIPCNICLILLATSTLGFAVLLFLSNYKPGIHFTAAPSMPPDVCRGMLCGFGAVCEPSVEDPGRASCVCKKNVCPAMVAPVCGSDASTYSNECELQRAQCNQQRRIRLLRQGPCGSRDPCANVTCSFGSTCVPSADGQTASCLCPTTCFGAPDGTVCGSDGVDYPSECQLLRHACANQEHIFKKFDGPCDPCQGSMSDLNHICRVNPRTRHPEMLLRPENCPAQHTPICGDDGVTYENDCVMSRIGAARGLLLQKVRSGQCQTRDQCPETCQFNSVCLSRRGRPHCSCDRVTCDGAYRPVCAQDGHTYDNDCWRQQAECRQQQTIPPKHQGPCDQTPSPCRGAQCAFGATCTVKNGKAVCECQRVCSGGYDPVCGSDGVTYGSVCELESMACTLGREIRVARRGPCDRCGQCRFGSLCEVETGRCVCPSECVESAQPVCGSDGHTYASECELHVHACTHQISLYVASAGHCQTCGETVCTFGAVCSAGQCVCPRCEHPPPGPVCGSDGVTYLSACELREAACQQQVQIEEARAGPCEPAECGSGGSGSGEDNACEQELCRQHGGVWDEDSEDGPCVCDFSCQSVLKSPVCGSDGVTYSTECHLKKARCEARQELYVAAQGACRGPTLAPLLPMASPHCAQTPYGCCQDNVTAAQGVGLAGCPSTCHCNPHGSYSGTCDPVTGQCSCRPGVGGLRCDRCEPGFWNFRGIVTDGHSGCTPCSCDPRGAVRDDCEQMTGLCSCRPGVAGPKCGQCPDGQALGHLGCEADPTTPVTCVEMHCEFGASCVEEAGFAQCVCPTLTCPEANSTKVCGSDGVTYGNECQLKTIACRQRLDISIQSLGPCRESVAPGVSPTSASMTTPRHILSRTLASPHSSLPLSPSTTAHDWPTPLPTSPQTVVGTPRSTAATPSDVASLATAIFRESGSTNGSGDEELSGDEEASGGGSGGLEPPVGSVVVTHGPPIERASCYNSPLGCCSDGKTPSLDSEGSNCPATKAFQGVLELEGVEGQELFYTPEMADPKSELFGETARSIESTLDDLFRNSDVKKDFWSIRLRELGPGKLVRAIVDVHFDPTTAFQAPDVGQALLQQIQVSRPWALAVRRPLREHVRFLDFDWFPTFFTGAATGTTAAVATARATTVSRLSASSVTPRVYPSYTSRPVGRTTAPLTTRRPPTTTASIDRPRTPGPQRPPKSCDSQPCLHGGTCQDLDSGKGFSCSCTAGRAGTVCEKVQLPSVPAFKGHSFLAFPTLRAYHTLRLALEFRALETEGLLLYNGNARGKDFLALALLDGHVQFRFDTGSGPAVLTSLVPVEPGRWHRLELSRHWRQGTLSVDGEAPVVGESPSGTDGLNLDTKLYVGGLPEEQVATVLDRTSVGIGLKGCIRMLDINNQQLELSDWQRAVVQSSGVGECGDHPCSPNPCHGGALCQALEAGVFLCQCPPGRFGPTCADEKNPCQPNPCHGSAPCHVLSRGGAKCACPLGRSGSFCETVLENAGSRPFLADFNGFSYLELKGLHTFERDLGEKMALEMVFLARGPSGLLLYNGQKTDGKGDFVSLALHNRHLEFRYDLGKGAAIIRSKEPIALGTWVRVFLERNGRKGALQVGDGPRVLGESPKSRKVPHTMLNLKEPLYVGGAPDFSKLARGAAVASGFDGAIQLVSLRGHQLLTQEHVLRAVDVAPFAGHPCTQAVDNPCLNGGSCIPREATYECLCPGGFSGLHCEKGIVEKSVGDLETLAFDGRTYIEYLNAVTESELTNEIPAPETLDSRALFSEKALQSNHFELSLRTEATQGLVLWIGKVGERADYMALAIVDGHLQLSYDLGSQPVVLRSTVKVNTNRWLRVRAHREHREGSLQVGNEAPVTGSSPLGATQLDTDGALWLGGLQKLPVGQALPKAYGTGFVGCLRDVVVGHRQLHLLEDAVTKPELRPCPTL

B1: human neurotrypsin (protein)
chain: FDSVLNDSLHHSHRHSPPAGPHYPYYLPTQQRPPRTRPPPPLPRFPRPPRALPAQRPHALQAGHTPRPHPWGCPAGEPWVSVTDFGAPCLRWAEVPPFLERSPPASWAQLRGQRHNFCRSPDGAGRPWCFYGDARGKVDWGYCDCRHGSVRLRGGKNEFEGTVEVYASGVWGTVCSSHWDDSDASVICHQLQLGGKGIAKQTPFSGLGLIPIYWSNVRCRGDEENILLCEKDIWQGGVCPQKMAAAVTCSFSHGPTFPIIRLAGGSSVHEGRVELYHAGQWGTVCDDQWDDADAEVICRQLGLSGIAKAWHQAYFGEGSGPVMLDEVRCTGNELSIEQCPKSSWGEHNCGHKEDAGVSCTPLTDGVIRLAGGKGSHEGRLEVYYRGQWGTVCDDGWTELNTYVVCRQLGFKYGKQASANHFEESTGPIWLDDVSCSGKETRFLQCSRRQWGRHDCSHREDVSIACYPGGEGHRLSLGFPVRLMDGENKKEGRVEVFINGQWGTICDDGWTDKDAAVICRQLGYKGPARARTMAYFGEGKGPIHVDNVKCTGNERSLADCIKQDIGRHNCRHSEDAGVICDYFGKKASGNSNKESLSSVCGLRLLHRRQKRIIGGKNSLRGGWPWQVSLRLKSSHGDGRLLCGATLLSSCWVLTAAHCFKRYGNSTRSYAVRVGDYHTLVPEEFEEEIGVQQIVIHREYRPDRSDYDIALVRLQGPEEQCARFSSHVLPACLPLWRERPQKTASNCYITGWGDTGRAYSRTLQQAAIPLLPKRFCEERYKGRFTGRMLCAGNLHEHKRVDSCQGDSGGPLMCERPGESWVVYGVTSWGYGCGVKDSPGVYTKVSAFVPWIKSVTKL
agrin-EGFP
  cleavage of purified agrin-EGFP by purified neurotrypsin (SDS-PAGE, Western blot): Lane 2 shows the agrin-EGFP (indicated by arrow marked Ag-EGPF) and the C-terminal fragment of approximately 150 kDa generated by neurotrypsin activity
agrin-C45
  cleavage of purified agrin-C45 by purified neurotrypsin (silver stained SDS-PAGE): The cleavage products agrin-C45 are found between 20 and 25 kDa

B2: mouse neurotrypsin (protein)
chain: DPVSRSPLHRPHPSPPRSQHAHYLPSSRRPPRTPRFPLPLRIPAAQRPQVLSTGHTPPTIPRRCGAGESWGNATNLGVPCLHWDEVPPFLERSPPASWAELRGQPHNFCRSPDGSGRPWCFYRNAQGKVDWGYCDCGQGPALPVIRLVGGNSGHEGRVELYHAGQWGTICDDQWDNADADVICRQLGLSGIAKAWHQAHFGEGSGPILLDEVRCTGNELSIEQCPKSSWGEHNCGHKEDAGVSCVPLTDGVIRLAGGKSTHEGRLEVYYKGQWGTVCDDGWTEMNTYVACRLLGFKYGKQSSVNHFDGSNRPIWLDDVSCSGKEVSFIQCSRRQWGRHDCSHREDVGLTCYPDSDGHRLSPGFPIRLVDGENKKEGRVEVFVNGQWGTICDDGWTDKHAAVICRQLGYKGPARARTMAYFGEGKGPIHMDNVKCTGNEKALADCVKQDIGRHNCRHSEDAGVICDYLEKKASSSGNKEMLSSGCGLRLLHRRQKRIIGGNNSLRGAWPWQASLRLRSAHGDGRLLCGATLLSSCWVLTAAHCFKRYGNNSRSYAVRVGDYHTLVPEEFEQEIGVQQIVIHRNYRPDRSDYDIALVRLQGPGEQCARLSTHVLPACLPLWRERPQKTASNCHITGWGDTGRAYSRTLQQAAVPLLPKRFCKERYKGLFTGRMLCAGNLQEDNRVDSCQGDSGGPLMCEKPDESWVVYGVTSWGYGCGVKDTPGVYTRVPAFVPWIKSVTSL
agrin-EGFP
  150 kDa C-terminal fragment of agrin-EGFP (Western blot): Western blot detection of the 150 kDa C-terminal fragment of agrin (Ag-CF) generated by neurotrypsin-mediated cleavage of agrin-EGFP
[1]
  release of a 100-kDa agrin fragment into the culture medium (Western blot): In 200 µl culture medium of double transfected HEK293T cells a 100-kDa band was detected with the anti-agrin antibody
[2]
  temporal pattern of the C-terminal 100-kDa agrin fragment and of neurotrypsin in mouse spinal cord (Western blot): Western blotting with antibodies versus the C-terminal moiety of agrin revealed a highly similar temporal pattern

B3: catalytically inactive neurotrypsin (Neurotrypsin Ser711Ala) (protein)
chain: DPVSRSPLHRPHPSPPRSQHAHYLPSSRRPPRTPRFPLPLRIPAAQRPQVLSTGHTPPTIPRRCGAGESWGNATNLGVPCLHWDEVPPFLERSPPASWAELRGQPHNFCRSPDGSGRPWCFYRNAQGKVDWGYCDCGQGPALPVIRLVGGNSGHEGRVELYHAGQWGTICDDQWDNADADVICRQLGLSGIAKAWHQAHFGEGSGPILLDEVRCTGNELSIEQCPKSSWGEHNCGHKEDAGVSCVPLTDGVIRLAGGKSTHEGRLEVYYKGQWGTVCDDGWTEMNTYVACRLLGFKYGKQSSVNHFDGSNRPIWLDDVSCSGKEVSFIQCSRRQWGRHDCSHREDVGLTCYPDSDGHRLSPGFPIRLVDGENKKEGRVEVFVNGQWGTICDDGWTDKHAAVICRQLGYKGPARARTMAYFGEGKGPIHMDNVKCTGNEKALADCVKQDIGRHNCRHSEDAGVICDYLEKKASSSGNKEMLSSGCGLRLLHRRQKRIIGGNNSLRGAWPWQASLRLRSAHGDGRLLCGATLLSSCWVLTAAHCFKRYGNNSRSYAVRVGDYHTLVPEEFEQEIGVQQIVIHRNYRPDRSDYDIALVRLQGPGEQCARLSTHVLPACLPLWRERPQKTASNCHITGWGDTGRAYSRTLQQAAVPLLPKRFCKERYKGLFTGRMLCAGNLQEDNRVDSCQGDAGGPLMCEKPDESWVVYGVTSWGYGCGVKDTPGVYTRVPAFVPWIKSVTSL
[1]
  release of a 100-kDa agrin fragment into the culture medium (Western blot): no signal was detected in medium of HEK293T cells transfected with agrin and catalytically inactive neurotrypsin
